Here are results for three compounds from PMC9307983 (Acta Naturae, 2022).

Data set [1] relates to CSCC[C@H](N)C(=O)O. Put plainly: purified protein, by the assay type. To be noted: other: Ser339Ala MGL, 30°C, pH 8.0, coupled with HOHxoDH or LDH.
Data set [2] deals with Ser339Ala MGL (Citrobacter freundii, UniProt Q84AR1, S339A). Put plainly: coenzyme (PLP) dissociation constant by ultrafiltration, Ser339Ala MGL apoenzyme. Type of data set: binding. The settings on record: mutant enzyme, pH 8.0, 30°C, Scatchard coordinates. The procedure: The apoenzyme and holoenzyme were prepared in a 50-mM potassium phosphate buffer, pH 8.0, containing 1 mM DTT and 1 mM EDTA. The holoenzyme was prepared by adding a 50-fold molar excess of PLP. The mixture was incubated at 25°C for 1 h. The excess PLP was removed by dialysis. The apoenzyme was prepared by adding a 100-fold molar excess of DL-penicillamine to the sample [42]. The mixture was incubated at 25°C for 1 h. DL-Penicillamine was removed by dialysis. The procedure was repeated until the enzyme activity decreased to 1% of the initial activity. The PLP content in the sample was determined in 100 mM NaOH using the molar extinction coefficient of PLP at 390 nm (ε = 6,600 M^–1cm^–1 [43]).
The PLP dissociation constant was determined by ultrafiltration. Varying amounts of PLP (in a range of 5 × 10^–3 to 1.2 × 10^–1 mM) were added to the 8 × 10^–3 mM apoenzyme in a 50-mM potassium phosphate buffer, pH 8.0, containing 1 mM DTT and 1 mM EDTA. After incubation at 30°C for 30 min, free PLP was separated by centrifugation in a Centricon-30 microconcentrator (Amicon, United States) at 5,000 rpm and 4°C for 5 min. The PLP content in each sample was determined in 100 mM NaOH. The data were processed in Scatchard coordinates.

For data set [3], the target named is MGL, Ser339Ala (Citrobacter freundii, UniProt Q84AR1, S339A). Put plainly: biochemical. Type of data set: biochemical. The method, then:
The kinetic parameters of the γ- and β-elimination reactions were determined at 30°C in the conjugate reaction with HOHxoDH or LDH based on a decrease in NADH absorbance at 340 nm (Δε = 6,220 M^–1cm^–1). The reaction mixtures contained a 100-mM potassium phosphate buffer, pH 8.0, 0.1 mM PLP, 1 mM DTT, 0.2 mM NADH, 70 μg HOHxoDH or 10 U LDH, and variable amounts of the substrate in a total volume of 1 mL. The reaction was initiated by the addition of 10 μg of the enzyme.
The kinetic parameters were calculated according to the Michaelis–Menten equation using the EnzFitter software. In the calculations, an enzyme subunit molecular weight of 43 kDa was used. The inhibition constants were also determined using the EnzFitter software.

One may read the Km as the concentration of substrate that gives half-maximal velocity. The term kcat denotes the maximal rate divided by the concentration of active sites. One may read the Kd as the free concentration of one partner at which half of the binding sites on the other are occupied at equilibrium, for simple one-to-one binding. Low values mean a tighter complex, high ones a looser complex. Usually Ki stands for the dissociation constant of the complex between target and ligand, obtained from inhibition or displacement.

Regarding “MGL, Ser339Ala (Citrobacter freundii; S339A)”, in data set [1], the Km is 1840 ± 150 µM and the kcat turned out to be 0.21 s⁻¹.
As to `Cc1ncc(COP(=O)(O)O)c(C=O)c1O` [PLP, pyridoxal 5’-phosphate], the Kd in data set [2] came to 1.01 µM.
Take `C[C@H](N)C(=O)O` [L-Ala, L-alanine]: the affinity in data set [3] corresponds to a Ki of 1250 ± 320 µM.
